According to PMC8596624:

How the values were obtained:
[1] = biological target: T1, WHTS, trimeric spike protein, wild-type (Wuhan) (SARS-CoV-2 (Wuhan), UniProt P0DTC2 14-1213); experiment: electrochemical impedance
[2] = biological target: T1, WHTS, trimeric spike protein, wild-type …; experiment: electrochemical impedance; remark: listed apart in the source
[3] = biological target: T1, WHTS, trimeric spike protein, wild-type …; experiment: dot blot
[4] = biological target: T1, WHTS, trimeric spike protein, wild-type …; experiment: electrochemical impedance; remark: listed apart in the source
[5] = biological target: WH-S1, spike S1 subunit, wild-type (SARS-CoV-2 (Wuhan), UniProt P0DTC2 14-685); experiment: dot blot

TTCCGGTTAATTTATGCTCTACCCGTCCACCTACCGGAATTTT (structured_DNA, 3' thiol (3ThioMC3-D)) [MSA1T-SH]: binds [1].

B1: DSA1N5-SH (structured_DNA)
DNA: TTCCGGTTAATTTATGCTCTACCCGTCCACCTACCGGAATTTTTTTTTTTTTTTTTTTTTTTTTTTTTTACGGGTTTGGCGTCGGGCCTGGCGGGGGGATAGTGCGGTTTTT
modifications: 3' thiol (3ThioMC3-D)
B1: binds [2].

TTCCGGTTAATTTATGCTCTACCCGTCCACCTACCGGAA (structured_DNA) [MSA1T] was tested, and the Kd [3] was 11.9 ± 1.8 nM.

B2: DMC (ssDNA)
DNA: CTATATCCCTTTAAGCCTGTGGGTCCACGAATCTACCTCTTTTTTTTTTTTTTTTTTTTTTTTTTTTTTGCGTTCGGAGTGGGTCGTGCGGCGCGGGACGAGTGGTGT
B2: no binding [3].

ACGGGTTTGGCGTCGGGCCTGGCGGGGGGATAGTGCGGTTTTT (structured_DNA, 3' thiol (3ThioMC3-D)) [MSA5T-SH]: binds [4].

B3: MSA1 (structured_DNA)
DNA: TTACGTCAAGGTGTCACTCCCACTTTCCGGTTAATTTATGCTCTACCCGTCCACCTACCGGAAGCATCTCTTTGGCGTG
B3: binds [5].

B4: MSA5 (structured_DNA)
DNA: TTACGTCAAGGTGTCACTCCACGGGTTTGGCGTCGGGCCTGGCGGGGGGATAGTGCGGTGGAAGCATCTCTTTGGCGTG
B4: binds [5].

GCGTTCGGAGTGGGTCGTGCGGCGCGGGACGAGTGGTGT (ssDNA) [M5C]: no binding [3].

CTATATCCCTTTAAGCCTGTGGGTCCACGAATCTACCTC (ssDNA) [M1C]: no binding [3].
